The target of test [1] is Recombinant Human DPPIV/CD26 (R&D Systems, Inc.) (human) (UniProt P27487). Put plainly: cell-based or functional assay.
Test [2] concerns the target Angiotensin Converting Enzyme, from rabbit lung (SIGMA) (rabbit) (UniProt P12822). Put plainly: cell-based or functional assay.
Chain of UniProt P12822 (P12822 34-1310 limits assumed): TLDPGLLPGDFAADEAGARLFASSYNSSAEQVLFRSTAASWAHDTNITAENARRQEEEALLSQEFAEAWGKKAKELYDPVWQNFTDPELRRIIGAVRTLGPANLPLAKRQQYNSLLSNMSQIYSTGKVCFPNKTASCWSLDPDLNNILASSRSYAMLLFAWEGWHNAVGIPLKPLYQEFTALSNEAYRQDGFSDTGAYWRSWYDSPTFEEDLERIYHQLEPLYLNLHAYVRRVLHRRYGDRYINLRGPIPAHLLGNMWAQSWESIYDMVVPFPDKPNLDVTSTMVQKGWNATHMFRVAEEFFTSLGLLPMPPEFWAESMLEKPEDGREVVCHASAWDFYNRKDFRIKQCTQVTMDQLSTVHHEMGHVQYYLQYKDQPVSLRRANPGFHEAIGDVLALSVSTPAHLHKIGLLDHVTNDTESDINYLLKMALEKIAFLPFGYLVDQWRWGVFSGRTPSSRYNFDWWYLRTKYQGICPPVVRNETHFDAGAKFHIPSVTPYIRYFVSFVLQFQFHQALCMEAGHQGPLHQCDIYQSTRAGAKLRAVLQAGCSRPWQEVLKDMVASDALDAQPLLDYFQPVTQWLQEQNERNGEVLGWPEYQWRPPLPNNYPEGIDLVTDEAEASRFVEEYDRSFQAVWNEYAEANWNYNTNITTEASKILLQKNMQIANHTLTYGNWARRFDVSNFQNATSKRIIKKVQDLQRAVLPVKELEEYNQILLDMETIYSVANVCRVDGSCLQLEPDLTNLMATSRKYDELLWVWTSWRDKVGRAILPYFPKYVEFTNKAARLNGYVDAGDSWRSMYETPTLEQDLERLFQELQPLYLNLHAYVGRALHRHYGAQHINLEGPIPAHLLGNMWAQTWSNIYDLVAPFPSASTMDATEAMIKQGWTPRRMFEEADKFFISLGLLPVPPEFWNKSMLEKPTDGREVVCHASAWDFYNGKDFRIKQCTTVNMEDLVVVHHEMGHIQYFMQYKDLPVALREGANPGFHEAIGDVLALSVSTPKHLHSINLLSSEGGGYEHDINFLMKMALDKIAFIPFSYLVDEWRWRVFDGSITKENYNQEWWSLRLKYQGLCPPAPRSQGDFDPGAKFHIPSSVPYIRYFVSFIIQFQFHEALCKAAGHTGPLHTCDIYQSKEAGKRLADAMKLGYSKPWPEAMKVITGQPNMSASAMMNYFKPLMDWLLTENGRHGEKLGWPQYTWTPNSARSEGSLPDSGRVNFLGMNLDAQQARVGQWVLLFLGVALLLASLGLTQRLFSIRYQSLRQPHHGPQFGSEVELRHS

Chain of UniProt P27487 (P27487 29-766 limits assumed): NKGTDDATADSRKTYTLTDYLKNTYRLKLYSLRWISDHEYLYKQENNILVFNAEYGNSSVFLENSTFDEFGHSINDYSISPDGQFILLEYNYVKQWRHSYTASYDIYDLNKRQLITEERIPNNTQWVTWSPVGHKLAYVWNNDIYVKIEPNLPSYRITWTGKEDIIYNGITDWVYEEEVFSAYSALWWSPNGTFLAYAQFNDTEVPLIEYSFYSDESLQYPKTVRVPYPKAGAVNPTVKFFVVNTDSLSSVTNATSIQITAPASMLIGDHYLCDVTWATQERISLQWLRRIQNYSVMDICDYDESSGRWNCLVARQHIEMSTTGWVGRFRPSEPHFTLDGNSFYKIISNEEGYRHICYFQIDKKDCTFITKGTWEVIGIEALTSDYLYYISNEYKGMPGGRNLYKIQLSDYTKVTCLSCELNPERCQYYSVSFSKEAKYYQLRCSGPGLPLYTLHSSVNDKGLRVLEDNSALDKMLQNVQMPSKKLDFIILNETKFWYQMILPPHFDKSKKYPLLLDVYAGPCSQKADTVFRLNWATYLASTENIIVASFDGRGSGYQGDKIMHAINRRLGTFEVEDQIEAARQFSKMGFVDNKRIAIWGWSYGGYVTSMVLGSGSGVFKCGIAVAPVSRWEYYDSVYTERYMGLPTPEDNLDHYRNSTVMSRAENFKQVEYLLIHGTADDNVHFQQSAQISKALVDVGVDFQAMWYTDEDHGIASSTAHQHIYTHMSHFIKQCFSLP

Take Ile-Pro-Pro (peptide): the DPP-4 inhibiting activity IC50(µg/ml) in test [1] was determined as 1340 µg/mL. Turning to LY (peptide), the DPP-4 inhibiting activity IC50(µg/ml) in test [1] is 486 µg/mL. On to Val-Pro-Ala (peptide), for which the ACE inhibiting activity, 50% inhibition concentration in test [2] was found to be 24.8 µg/mL. In test [1], the DPP-4 inhibiting activity IC50(µg/ml) was 1.9 µg/mL and the concentration for 50% inhibition of the enzymatic activity (dipeptidyl peptidase-IV inhibiting ability of HPLC Fraction 2) was determined as 2 µg/mL.

Take Val-Pro-Asn (peptide): the DPP-4 inhibiting activity IC50(µg/ml) in test [1] was 5.7 µg/mL. Still for that read-out and setting: as for Val-Pro-Gln (peptide), the figure is 2.6 µg/mL; as for Val-Pro-Gly (peptide), 3.4 µg/mL. In test [2], Val-Pro-Lys (peptide) showed an ACE inhibiting activity, 50% inhibition concentration of 132 µg/mL. The DPP-4 inhibiting activity IC50(µg/ml) in test [1] came out at 10.4 µg/mL. On to Val-Pro-Pro (peptide), for which the DPP-4 inhibiting activity IC50(µg/ml) in test [1] is > 2000 µg/mL. Same read-out and setting: then Val-Pro-Ser (peptide), with 5.17 µg/mL; and Val-Pro-Tyr (peptide), with 7.15 µg/mL.

Turning to Val-Pro-Val (peptide), the DPP-4 inhibiting activity IC50(µg/ml) in test [1] stood at 1 µg/mL.

Source of the values: patent US20150232510A1.
